# Experimental data reported in paper PMC3217979, “Thermostable Hexameric Form of Eis (Rv2416c) Protein of M. tuberculosis Plays an Important Role for Enhanced Intracellular Survival within Macrophages” (PLoS ONE, 2011).
# B1: Eis protein (Rv2416c) of M. tuberculosis (enzyme)
# chain: MTVTLCSPTEDDWPGMFLLAAASFTDFIGPESATAWRTLVPTDGAVVVRDGAGPGSEVVGMALYMDLRLTVPGEVVLPTAGLSFVAVAPTHRRRGLLRAMCAELHRRIADSGYPVAALHASEGGIYGRFGYGPATTLHELTVDRRFARFHADAPGGGLGGSSVRLVRPTEHRGEFEAIYERWRQQVPGGLLRPQVLWDELLAECKAAPGGDRESFALLHPDGYALYRVDRTDLKLARVSELRAVTADAHCALWRALIGLDSMERISIITHPQDPLPHLLTDTRLARTTWRQDGLWLRIMNVPAALEARGYAHEVGEFSTVLEVSDGGRFALKIGDGRARCTPTDAAAEIEMDRDVLGSLYLGAHRASTLAAANRLRTKDSQLLRRLDAAFASDVPVQTAFEF
# notes: also called aminoglycoside acetyltransferase Eis; recombinant Eis protein
# Assays:
# [1] = target: the molecule itself; experiment: SEC; […], pH 8.0, 25°C; […]
# [2] = target: the molecule itself; experiment: SDS-PAGE of unboiled and boiled samples; 10 µg Eis in 1% SDS, 0.125 M Tris pH 6.8, boiled or unboiled; 10% acrylamide gel, 0.1% SDS in Tris/Glycine pH 8.0; Coomassie stain
protein,measurement,setting,value
B1,stoichiometry N,[1],6
same,stoichiometry N,[2],3
